Measured values: patent US20210371499A1 (University of California, published 2021)

Target: l[…]/HLA-A*02:01 (l = D-leucine) (human)
Assay: SEC TAPBPR binding assay

B1: TAPasin Binding Protein Related (TAPBPR), luminal domain, His6-tagged (other)
chain: KPHPAEGQWRAVDVVLDCFLAKDGAHRGALASSEDRARASLVLKQVPVLDDGSLEDFTDFQGGTLAQDDPPIIFEASVDLVQIPQAEALLHADCSGKEVTCEISRYFLQMTETTVKTAAWFMANMQVSGGGPSISLVMKTPRVTKNEALWHPTLNLPLSPQGTVRTAVEFQVMTQTQSLSFLLGSSASLDCGFSMAPGLDLISVEWRLQHKGRGQLVYSWTAGQGQAVRKGATLEPAQLGMARDASLTLPGLTIQDEGTYICQITTSLYRAQQIIQLNIQASPKVRLSLANEALLPTLICDIAGYYPLDVVVTWTREELGGSPAQVSGASFSSLRQSVAGTYSISSSLTAEPGSAGATYTCQVTHISLEEPLGASTQVVPPERR
notes: domain: luminal domain; Molecular chaperone; also called TAPBR; HIS-Tagged TAPBPR; not shown: His6 tag
B1: no binding.
